# Positions count from the first letter of the chain named.
# B1: chimeric anti-PD-L1 antibody 105C5D7 (antibody, V domains shown)
# VH: EVQLVESGGGLVQPGGSLRLSCAASGFTFSSYWMSWVRQAPGKGLEWVANIKQDGNEKYYVDSVKGRFTISRDNAKNSLYLQMNSLRAEDTAVYYCARNIKWGDAFDIWGQGTMVTVSS
# VL: DIQMTQSPSSLSASVGDRVTITCRASQSISSYLNWYQQKPGKAPKLLIYAASSLQSGVPSRFSGSGSGTDFTLTISSLQPEDFAIYSCQQSYSIPLTFGGGTKVEIK
# notes: Purified from hybridoma of Harbour H2L2 mice: human variable regions, rat constant regions
# B2: chimeric anti-PD-L1 antibody 78A11F6 (antibody, V domains shown)
# VH: EVQLVESGGGLVQPGGSLRLSCAASGITFSSYWMSWVRQTPGKGLEWVANIKQDGSEKYYVKSVKGRFTISRDNAKNSLYLQMNSLRAEDTAVYYCVRDRAVPGTGAFDIWGQGTMVIVSS
# VL: DIQMTQSPSTLSASVGDRVTITCRASQSISNWLAWYQQKPGKAPKLLIYKASSLESGVPSRFSGSGSGTEFTLTISSLQPDDFATYYCQQYDSSLFTFGQGTKLEIK
# notes: as for B1
# B3: chimeric anti-PD-L1 antibody 73D3G2 (antibody, V domains shown)
# VH: EVQLVESGGGLVQPGGSLRLSCAASGFTFNTYWMNWVRQAPGRGLEWVANIKQDGGEKYYVDSVKGRFTISRDNAKNSLYLQMNSLRAEDTAMYYCARDGRSWYPDAFDIWGQGTVVTVSS
# VL: DIQMTQSPSTLSASVGDRVTITCRASQSISTWLAWYQQKLGKAPKLLIYEVSILESGVPSRFSGSGSGTEFTLTISSLQPDDFATYYCQQYHSFSSFGGGTRVEIK
# notes: as for B1
# B4: chimeric anti-PD-L1 antibody 73G11B3 (antibody, V domains shown)
# VH: B2 VH with A23V, A24V, I27F, K62D, F68L, F108L, I118T
# VL: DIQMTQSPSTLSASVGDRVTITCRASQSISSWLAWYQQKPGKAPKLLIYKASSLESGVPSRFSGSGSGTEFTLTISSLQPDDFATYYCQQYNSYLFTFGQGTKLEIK
# notes: as for B1
# B5: chimeric anti-PD-L1 antibody 127D2F3 (antibody, V domains shown)
# VH: EVQLVESGGGLVQPGGSLRLSCVASGFTFSSYWMSWVRQAPGKGLEWVANIKQDGSEKYYVDSVKGRLTISRDNAKNSLYLQMKSLRAEDTAVYYCARDPIYSSYFDYWGQGILVTVSS
# VL: B1 VL with S31N, I85A, S87Y, S93G, L96F, G100P, E105D
# notes: as for B1
# B6: chimeric anti-PD-L1 antibody 192D9E7 (antibody, V domains shown)
# VH: EVQLVESGGGLVQPGGSLRLSCAASGFTFSSYWMSWVRQAPGKGLEWVADIKQDGSEKYYVDSVKGRFTISRDNAKNSLYLQMNSLRAEDTAVYYCTRDKPHWGGVMDAWGQGTSVTVSS
# VL: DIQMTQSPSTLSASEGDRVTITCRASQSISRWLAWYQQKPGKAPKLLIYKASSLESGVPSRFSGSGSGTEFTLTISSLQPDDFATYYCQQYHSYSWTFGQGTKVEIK
# notes: as for B1
# Target: T1, full length cyno PD-L1 on cells (cyno, UniProt G7PSE7 19-290)
# T1 construct: also called CHO-K1-cPD-L1
# Test: FACS CHO-K1-cPD-L1, 33.33 nM mAb
# Protocol: (§1) Other CHO-K1 were stably transfected with a pIRES plasmid containing the nucleic acid sequence encoding full length cyno PD-L1 to generate CHO-K1 cells stably expressing cyno PD-L1 (herein referred to as CHO-K1-cPD-L1 cells). […] The culture media was aspirated, and the cells were washed twice with HBSS (Hanks Balanced Salt Solution, Invitrogen). The cells were treated with enzyme-free cell dissociation solution (Versene solution, Invitrogen) and collected. The cells were then washed twice with HBSS, cell counts were determined, and cells were resuspended with HBSS at 2×10⁶ cells/mL. Goat serum was added to the cell suspension to a final concentration of 1%, and the cells were blocked for 30 minutes on ice and then washed twice with HBSS. The cells were collected after centrifugation and resuspended in FACS buffer (HBSS+1% BSA, v/v) at 2×10⁶ cells/mL. 100 μL of the cell suspension were then added to each well of 96-well plate. 100 μL of purified anti-PD-L1 antibodies from Example 2 were added to each well of the 96-well plate and incubated for 2 hours on ice. […] The samples were washed three times with FACS buffer, and 100 μL fixation buffer (4% paraformaldehyde v/v) were added to each well and incubated for 10 minutes. The cells were then washed twice with FACS buffer and resuspended in 100 μL FACS buffer. The mean fluorescence intensity (MFI) was determined using FACS Calibur (BD), and the results are shown in FIGS. 7-8 and in Tables 10-11.
# T1 sequence (G7PSE7 entry or part of it limits assumed): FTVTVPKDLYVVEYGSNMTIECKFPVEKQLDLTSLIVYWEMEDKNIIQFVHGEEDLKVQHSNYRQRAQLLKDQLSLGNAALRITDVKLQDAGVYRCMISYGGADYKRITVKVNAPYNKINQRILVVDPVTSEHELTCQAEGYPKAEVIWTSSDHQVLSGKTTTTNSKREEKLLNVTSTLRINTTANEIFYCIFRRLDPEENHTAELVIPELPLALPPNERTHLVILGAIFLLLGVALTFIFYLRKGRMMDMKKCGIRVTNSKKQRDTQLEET
row,Binder,Mean fluorescence intensity
1,B1,133
2,B2,143
3,B3,137

# Target: T2, full length human PD-L1 on cells (human, UniProt Q9NZQ7 19-290)
# Test: cell-based or functional assay
# T2 sequence (Q9NZQ7 19-290 limits assumed): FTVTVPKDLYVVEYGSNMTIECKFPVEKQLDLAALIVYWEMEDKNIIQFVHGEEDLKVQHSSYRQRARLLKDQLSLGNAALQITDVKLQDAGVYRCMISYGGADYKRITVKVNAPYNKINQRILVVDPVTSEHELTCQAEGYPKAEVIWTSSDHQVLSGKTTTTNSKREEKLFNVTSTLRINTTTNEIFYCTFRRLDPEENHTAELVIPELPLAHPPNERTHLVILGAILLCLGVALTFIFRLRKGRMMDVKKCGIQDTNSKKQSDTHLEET
Binder,"IFN-γ (pg/mL), MLR, 0.001 µg/mL mAb [pg/mL]","IFN-γ (pg/mL), MLR, 0.01 µg/mL mAb [pg/mL]","IFN-γ (pg/mL), MLR, 0.1 µg/mL mAb [pg/mL]","IFN-γ (pg/mL), MLR, 1 µg/mL mAb [pg/mL]","IFN-γ (pg/mL), MLR, 10 µg/mL mAb [pg/mL]"
B4,1520,3750,5740,6480,6950
B5,599,1560,3010,2840,4840
B6,221,2000,3120,3300,4080

# Target: T1, full length cyno PD-L1 on cells
# Test: FACS CHO-K1-cPD-L1, 1.23 nM mAb
# Protocol: as §1
row,Binder,Mean fluorescence intensity
1,B1,137
2,B2,124
3,B3,116

# Target: T2, full length human PD-L1 on cells
# Test: FACS CHO-K1-hPD-L1, 0.001 nM mAb
# Protocol: as §1
row,Binder,Mean fluorescence intensity
1,B4,1.88
2,B5,2.1
3,B6,2.66

# Target: T1, full length cyno PD-L1 on cells
# Test: FACS CHO-K1-cPD-L1, 0.01 nM mAb
# Protocol: as §1
row,Binder,Mean fluorescence intensity
1,B4,3.83
2,B5,3.08
3,B6,3.38

# Target: T1, full length cyno PD-L1 on cells
# Test: FACS CHO-K1-cPD-L1, 1 nM mAb
# Protocol: as §1
row,Binder,Mean fluorescence intensity
1,B4,94.9
2,B5,80.5
3,B6,77.2

# Target: T2, full length human PD-L1 on cells
# Test: FACS CHO-K1-hPD-L1, 0.0001 nM mAb
# Protocol: as §1
row,Binder,Mean fluorescence intensity
1,B4,1.87
2,B5,4.04
3,B6,3.58

# Target: T3, human PD-L1^ECD-hFc protein (human, UniProt Q9NZQ7 19-239, biotinylated in the PD-1 binding ELISA (Table 3) and in the Octet assay (Table 12))
# T3 construct: The plain and the biotinylated protein are kept as one molecule; also called PD-L1-hFc; Immunogen A; not shown: human IgG Fc fragment (hFc)
# Test: ELISA, 0.01 nM mAb
# Protocol: (§2) 100 μL of the diluted recombinant proteins were added to each well of 96-well plate. The plates were sealed with plastic film and incubated at 4° C. overnight. The plates were washed twice with wash buffer (PBS+0.01% (v/v) Tween20), and incubated with blocking buffer (PBS+0.01% (v/v) Tween20+1% (w/w) BSA) at room temperature for 2 hours. The blocking buffer was aspirated away, and 100 μL of purified anti-PD-L1 antibodies were added to each well and incubated for 2 hours at 37° C. The plates were washed three times with wash buffer (PBS+0.01% (v/v) Tween20). HRP-conjugated secondary antibody (Sigma) was added to each well and incubated for 2 hours at 37° C. After the plates were washed three times with wash buffer, 100 μL TMB substrate were added to each well, and the plates were incubated for 30 minutes at room temperature. 100 μL stop solution (0.1N HCl) was added to each well to stop the reaction.
# T3 sequence (Q9NZQ7 19-239): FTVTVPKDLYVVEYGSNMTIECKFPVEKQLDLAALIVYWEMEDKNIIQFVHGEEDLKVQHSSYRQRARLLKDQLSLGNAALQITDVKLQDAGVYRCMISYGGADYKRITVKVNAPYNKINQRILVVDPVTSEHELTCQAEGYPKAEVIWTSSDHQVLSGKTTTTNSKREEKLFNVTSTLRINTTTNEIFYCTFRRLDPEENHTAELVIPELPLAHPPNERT
row,Binder,OD450 nm
1,B4,0.28
2,B5,0.38
3,B6,0.4

# Target: T3, human PD-L1^ECD-hFc protein
# Test: ELISA, 3.333 nM mAb
# Protocol: as §2
row,Binder,OD450 nm
1,B1,1.5
2,B2,1.73
3,B3,2.03

# Target: T4, cyno PD-L1^ECD-hFc protein (cyno, UniProt G7PSE7 19-239)
# T4 construct: also called Cyno Monkey PD-L1^ECD-hFc
# Test: ELISA, 3.333 nM mAb
# Protocol: as §2
# T4 sequence (G7PSE7 entry or part of it limits assumed): as the sequence (Q9NZQ7 19-239) above, with A33T, A34S, S62N, R68Q, Q82R, F173L, T185A, T192I, H215L counted along it
row,Binder,OD450 nm
1,B1,1.5
2,B2,2
3,B3,2.03

# Target: T1, full length cyno PD-L1 on cells
# Test: FACS CHO-K1-cPD-L1, 0.14 nM mAb
# Protocol: as §1
row,Binder,Mean fluorescence intensity
1,B1,42
2,B2,38.3
3,B3,44.3

# Target: T1, full length cyno PD-L1 on cells
# Test: FACS CHO-K1-cPD-L1, 3.70 nM mAb
# Protocol: as §1
row,Binder,Mean fluorescence intensity
1,B1,142
2,B2,139
3,B3,126

# Target: T1, full length cyno PD-L1 on cells
# Test: FACS CHO-K1-cPD-L1, 11.11 nM mAb
# Protocol: as §1
row,Binder,Mean fluorescence intensity
1,B1,136
2,B2,142
3,B3,136

# Target: T2, full length human PD-L1 on cells
# Test: cell-based or functional assay
# Remark: another data set of the same source
Binder,"IL-2 (pg/mL), MLR donor 2, 0.001 µg/mL mAb [pg/mL]","IL-2 (pg/mL), MLR donor 2, 0.01 µg/mL mAb [pg/mL]","IL-2 (pg/mL), MLR donor 2, 0.1 µg/mL mAb [pg/mL]","IL-2 (pg/mL), MLR donor 2, 1 µg/mL mAb [pg/mL]"
B4,54.2,90.1,110,140
B5,68.2,100,71.5,101
B6,73.4,130,120,94.4

# Target: T2, full length human PD-L1 on cells
# Test: FACS CHO-K1-hPD-L1, 0.1 nM mAb
row,Binder,Mean fluorescence intensity
1,B4,17.2
2,B5,15.5
3,B6,23.5

# Target: T3, human PD-L1^ECD-hFc protein
# Test: ELISA, 100 nM mAb
# Protocol: as §2
row,Binder,OD450 nm
1,B4,2.69
2,B5,2.63
3,B6,2.7

# Target: T2, full length human PD-L1 on cells
# Test: FACS CHO-K1-hPD-L1, 3.70 nM mAb
# Protocol: as §1
row,Binder,Mean fluorescence intensity
1,B1,203
2,B2,199
3,B3,113

# Target: T2, full length human PD-L1 on cells
# Test: FACS CHO-K1-hPD-L1, 1.23 nM mAb
row,Binder,Mean fluorescence intensity
1,B1,206
2,B2,174
3,B3,106

# From patent publication US20190010233A1 (JIANGSU HYAMAB PHARMACEUTICAL, published 2019)
